Numbering of substitutions follows the chain as printed.
What was measured:
[1] = biological target: T1, human EphA2 (ephrin receptor A2), on cells (human, UniProt P29317 24-976); assay: flow cytometry binding on A549 cells
T1 construct: Used for HEK293 transfectants, A549 and other human tumor cell lines
Procedure: (§1) Surface binding of the antibodies to in vitro grown cell lines was assessed by flow cytometry. Tumor cells were detached from their culture plate using Versene and counted. Cells were staining in BSA-containing buffer with primary antibody for 30 minutes at 4° C. with shaking. Following, cells were washed and stained with secondary PE-labeled antibody for 30 minutes at 4° C. with shaking. Before analysis on an Intellicyt iQue3 scanner, cells were counterstained with DAPI. MedFI values from live, single cells was expressed as fold over isotype control.

[2] = biological target: T1, human EphA2 (ephrin receptor A2), on …; assay: flow cytometry binding on A549 cells, MedFI
Procedure: as §1

hEphA2-clv432-534-Fc = biological target: T2, hEphA2-clv432-534-Fc (human, UniProt P29317 432-534); assay: SPR Biacore, 25 C, EphA2-Fc captured by anti-human Fc, Fab as analyte, 1:1 Langmuir
T2 construct: Recombinant fragment representing a cleavage form
T2 sequence (P29317 432-534): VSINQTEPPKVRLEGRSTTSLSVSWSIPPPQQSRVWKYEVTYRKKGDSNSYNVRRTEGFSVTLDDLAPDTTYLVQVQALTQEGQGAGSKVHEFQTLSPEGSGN
Procedure: (§2) The hEphA2-Fc fusions were captured with an anti-human Fc immobilized to a CM5 chip. Biacore® assays were conducted at 25° C. using HBS-EP+ buffer (0.01 M HEPES pH 7.4, 0.15 M NaCl, 3 mM EDTA, 0.005% v/v Surfactant P20). Data was double-reference subtracted and data was analyzed using 1:1 Langmuir binding model and steady-state model in Biacore Evaluation software.
(§3) Binding to hEphA2-ECD-Fc tested using 100, 300, and 900 nM analyte. Binding to all other ligands tested using 33.3, 100, and 300 nM analyte.

hEphA2-FN2-(437-534)-Fc = biological target: T3, hEphA2-FN2-(437-534)-Fc (human, UniProt P29317 437-534); assay: as above
T3 construct: Captured by anti-human Fc on a CM5 chip; also called FN2 domain of EphA2 fused to human Fc
T3 sequence (P29317 437-534): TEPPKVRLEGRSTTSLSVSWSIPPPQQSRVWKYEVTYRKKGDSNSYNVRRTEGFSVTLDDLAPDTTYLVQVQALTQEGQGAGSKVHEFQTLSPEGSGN
Procedure: as §2, §3

hEphA2-clv435-534-Fc = biological target: T4, hEphA2-clv435-534-Fc (human, UniProt P29317 435-534); assay: as above
T4 construct: Recombinant fragment representing a cleavage form
T4 sequence (P29317 435-534): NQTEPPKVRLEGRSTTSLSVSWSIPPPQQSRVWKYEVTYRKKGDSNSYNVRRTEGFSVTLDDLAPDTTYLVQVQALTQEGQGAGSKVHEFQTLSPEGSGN
Procedure: as §2, §3

hEphA2-clv385-534-Fc = biological target: T5, hEphA2-clv385-534-Fc (human, UniProt P29317 385-534); assay: as above
T5 construct: Recombinant fragment representing a cleavage form
T5 sequence (P29317 385-534): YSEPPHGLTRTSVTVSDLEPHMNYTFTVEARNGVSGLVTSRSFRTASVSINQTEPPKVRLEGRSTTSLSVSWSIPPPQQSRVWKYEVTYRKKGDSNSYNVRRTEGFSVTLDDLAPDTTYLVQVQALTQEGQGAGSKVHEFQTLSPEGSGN
Procedure: as §2, §3

hEphA2-FN12-(327-534)-Fc = biological target: T6, hEphA2-FN12-(327-534)-Fc (human, UniProt P29317 327-534); assay: as above
T6 construct: Captured by anti-human Fc on a CM5 chip; also called FN1-FN2 domains of EphA2 fused to human Fc
T6 sequence (P29317 327-534): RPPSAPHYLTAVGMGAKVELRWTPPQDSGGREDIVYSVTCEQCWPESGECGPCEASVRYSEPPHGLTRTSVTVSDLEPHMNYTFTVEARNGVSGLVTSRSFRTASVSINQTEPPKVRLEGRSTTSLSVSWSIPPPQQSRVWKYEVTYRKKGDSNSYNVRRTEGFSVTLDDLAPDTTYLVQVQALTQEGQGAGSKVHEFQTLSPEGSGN
Procedure: as §2, §3

hEphA2-clv395-534-Fc = biological target: T7, hEphA2-clv395-534-Fc (human, UniProt P29317 395-534); assay: as above
T7 construct: Recombinant fragment representing a cleavage form
T7 sequence (P29317 395-534): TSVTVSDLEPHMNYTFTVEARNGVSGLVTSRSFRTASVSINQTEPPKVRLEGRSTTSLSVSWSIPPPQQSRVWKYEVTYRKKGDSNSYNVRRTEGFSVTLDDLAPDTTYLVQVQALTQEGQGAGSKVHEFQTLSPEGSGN
Procedure: as §2, §3

[3] = biological target: T8, C-terminally His-tagged hEphA2-FN2 (Thr437-Asn534+His tag) (human, UniProt P29317 437-534); assay: SPR Biacore T200, 25 C, mIgG2a captured by anti-mouse Fc, FN2-His as analyte, steady-state fit, monovalent
T8 construct: SPR analyte; also called FN2 domain of hEphA2
T8 sequence (P29317 437-534 limits assumed): as the sequence (P29317 437-534) above
Procedure: Binding of antibodies to the FN2 domain of hEphA2 was measured using the Biacore® T200 SPR system at 25° C. using HBS-EP+ buffer (0.01 M HEPES pH 7.4, 0.15 M NaCl, 3 mM EDTA, 0.005% v/v Surfactant P20). Antibodies in mIgG2a format were captured at levels between 475-715 RU via an anti-mouse Fc antibody immobilized to a CM5 chip. Binding was assessed using a titration of C-terminally His-tagged hEphA2-FN2 (Thr437-Asn534+His tag) associated for 30 s or 75 s at 30 uL/min. Data was double-reference subtracted using both a surface without captured antibody and from injections of HBS-EP+ buffer. The equilibrium response was measured at 4 seconds before the end of association with a window of 5 seconds and fit using the Biacore T200 Evaluation Software 3.1 with the Steady State Affinity Model.

[4] = biological target: T8, C-terminally His-tagged hEphA2-FN2 …; assay: SPR Biacore T200, 25 C, mIgG2a as ligand, FN2-His as analyte, 1:1 Langmuir
Procedure: Binding of EphA2 antibodies to the FN2 domain of hEphA2 was measured using the Biacore® T200 SPR system. Biacore® assays were conducted at 25° C. using HBS-EP+ buffer (0.01 M HEPES pH 7.4, 0.15 M NaCl, 3 mM EDTA, 0.005% v/v Surfactant P20) using the FN2 domain as the analyte with the antibodies in mIgG2a format as the immobilized ligand. Data was analyzed using 1:1 Langmuir binding model and steady-state model in Biacore Evaluation software.
C-terminally His-tagged human EphA2 FN2 domain (Thr437-Asn534+His tag) was used as the analyte. The analyte was associated for 120 seconds and dissociated for 100 seconds or 300 seconds at 30 uL/min.

[5] = biological target: T9, Human EphA2 (ephrin receptor A2) (human, UniProt P29317 24-976); assay: IHC/IF score on frozen human tumor tissue, ER+ BRC
T9 construct: Endogenous protein in frozen human tumor tissue and tumor adjacent tissue, not a recombinant construct
T9 sequence (P29317 24-976 limits assumed): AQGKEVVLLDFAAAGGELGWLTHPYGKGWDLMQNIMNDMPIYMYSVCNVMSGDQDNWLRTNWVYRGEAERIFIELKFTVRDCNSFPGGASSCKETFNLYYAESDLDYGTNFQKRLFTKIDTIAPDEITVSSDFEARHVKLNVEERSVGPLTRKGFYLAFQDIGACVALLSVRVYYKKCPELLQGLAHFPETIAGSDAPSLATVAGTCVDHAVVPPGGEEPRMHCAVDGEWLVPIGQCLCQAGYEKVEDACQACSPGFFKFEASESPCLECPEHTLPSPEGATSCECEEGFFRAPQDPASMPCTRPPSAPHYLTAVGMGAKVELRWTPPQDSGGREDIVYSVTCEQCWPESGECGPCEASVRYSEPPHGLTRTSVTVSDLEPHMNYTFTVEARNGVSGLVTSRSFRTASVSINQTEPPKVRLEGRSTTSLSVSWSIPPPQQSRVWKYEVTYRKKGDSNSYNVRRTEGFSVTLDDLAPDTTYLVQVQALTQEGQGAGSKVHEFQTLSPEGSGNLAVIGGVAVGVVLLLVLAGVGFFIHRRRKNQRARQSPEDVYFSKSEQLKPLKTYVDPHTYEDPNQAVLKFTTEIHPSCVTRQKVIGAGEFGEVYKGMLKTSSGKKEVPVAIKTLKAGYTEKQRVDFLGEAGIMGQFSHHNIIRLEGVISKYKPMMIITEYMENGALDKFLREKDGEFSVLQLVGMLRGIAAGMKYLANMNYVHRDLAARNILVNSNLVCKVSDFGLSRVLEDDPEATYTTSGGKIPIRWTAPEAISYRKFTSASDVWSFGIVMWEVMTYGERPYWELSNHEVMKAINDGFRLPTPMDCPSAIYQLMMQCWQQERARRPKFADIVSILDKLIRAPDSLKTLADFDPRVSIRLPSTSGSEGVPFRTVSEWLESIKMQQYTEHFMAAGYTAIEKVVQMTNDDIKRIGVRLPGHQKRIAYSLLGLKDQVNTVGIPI

[6] = biological target: T9, Human EphA2 (ephrin receptor A2); assay: IHC/IF score on frozen human tumor tissue, OVA
[7] = biological target: T9, Human EphA2 (ephrin receptor A2); assay: IHC/IF score on frozen human tumor tissue, Her2+ BRC
[8] = biological target: T9, Human EphA2 (ephrin receptor A2); assay: IHC/IF score on frozen human tumor tissue, RCC-clear cell
[9] = biological target: T9, Human EphA2 (ephrin receptor A2); assay: IHC/IF score on frozen human tumor tissue, PROC
[10] = biological target: T9, Human EphA2 (ephrin receptor A2); assay: IHC/IF score on frozen human tumor tissue, UCEC-papillary
[11] = biological target: T9, Human EphA2 (ephrin receptor A2); assay: IHC/IF score on frozen human tumor tissue, UCEC-clear cell
[12] = biological target: T9, Human EphA2 (ephrin receptor A2); assay: IHC/IF score on frozen human tumor tissue, MELA
[13] = biological target: T9, Human EphA2 (ephrin receptor A2); assay: IHC/IF score on frozen human tumor tissue, TNBC
[14] = biological target: T9, Human EphA2 (ephrin receptor A2); assay: IHC/IF score on frozen human tumor tissue, NSCLC-Adeno
[15] = biological target: T9, Human EphA2 (ephrin receptor A2); assay: IHC/IF score on frozen human tumor tissue, PANC
[16] = biological target: T9, Human EphA2 (ephrin receptor A2); assay: IHC/IF score on frozen human tumor tissue, UCEC-endometriod
[17] = biological target: T9, Human EphA2 (ephrin receptor A2); assay: IHC/IF score on frozen human tumor tissue, GAC
[18] = biological target: T9, Human EphA2 (ephrin receptor A2); assay: IHC/IF score on frozen human tumor tissue, ANC
[19] = biological target: T9, Human EphA2 (ephrin receptor A2); assay: IHC/IF score on frozen human tumor tissue, RCC-papillary
[20] = biological target: T9, Human EphA2 (ephrin receptor A2); assay: IHC/IF score on frozen human tumor tissue, CRC
[21] = biological target: T9, Human EphA2 (ephrin receptor A2); assay: IHC/IF score on frozen human tumor tissue, URO
[22] = biological target: T9, Human EphA2 (ephrin receptor A2); assay: IHC/IF score on frozen human tumor tissue, HNC
[23] = biological target: T9, Human EphA2 (ephrin receptor A2); assay: IHC/IF score on frozen human tumor tissue, STS
[24] = biological target: T9, Human EphA2 (ephrin receptor A2); assay: IHC/IF score on frozen human tumor tissue, ESC
[25] = biological target: T9, Human EphA2 (ephrin receptor A2); assay: IHC/IF score on frozen human tumor tissue, NSCLC-SQ
[26] = biological target: T1, human EphA2 (ephrin receptor A2), on …; assay: flow cytometry on A549 cells
Procedure: as §1

[27] = biological target: T1, human EphA2 (ephrin receptor A2), on …; assay: flow cytometry on A549 cells, EC50 column

T1 sequence (P29317 24-976 limits assumed): as above

B1: AB-009806 (antibody, mouse IgG2a, V domains shown)
VH: QVQLQQWGAGLLKPSETLSLTCAVYGGSFSDYYWSWIRQPPGKGLEWIGEINHSGSTNYNPSLKSRVTISVDPSKNQFSLKLTSVTAADTAVYYCAKPFRPHCTNGVCYSGDAFDIWGQGTMVTVSS
VL: SYVLTQPPSVSVAPGQTARITCGGNNIGTKNVHWYQQKPGQAPVLVVYDDSDRPSGIPEQFSGSNSGNTATLTISRVEAGDEADYYCQVWDSSSDHLVFGGGTKLTVL
Flow Delta activity (MedFI) [1]: 231000 MedFI
EC50 (read off the curve) [2]: ~20 nM

B2: AB-010699 human Fab fragment (Fab, V domains shown)
VH: QVQLQQWGAGLLKPSETLSLTCAVYGGSFSGYYWSWIRQPPGKGLEWIGEINHRGSINYNNYNPSLKSRVTISVDTSKNQFSLKLSSVTAADTAVYYCAKPLRPHCINGVCYSGDAFDIWGQGTMVTVAS
VL: B1 VL with T29Y, Q60R, S92H, L97V
notes: Human Fab fragment
Kd (hEphA2-clv432-534-Fc): 9.6 nM
koff (hEphA2-clv432-534-Fc): 0.075 s⁻¹
kon (hEphA2-clv432-534-Fc): 7.78e+06 M⁻¹ s⁻¹
Kd (hEphA2-FN2-(437-534)-Fc): 8.6 nM
koff (hEphA2-FN2-(437-534)-Fc): 0.085 s⁻¹
kon (hEphA2-FN2-(437-534)-Fc): 1e+07 M⁻¹ s⁻¹
Kd (hEphA2-clv435-534-Fc): 9.3 nM
koff (hEphA2-clv435-534-Fc): 0.078 s⁻¹
kon (hEphA2-clv435-534-Fc): 8.42e+06 M⁻¹ s⁻¹
Kd (hEphA2-clv385-534-Fc): 12 nM
koff (hEphA2-clv385-534-Fc): 0.072 s⁻¹
kon (hEphA2-clv385-534-Fc): 6.05e+06 M⁻¹ s⁻¹
Kd (hEphA2-FN12-(327-534)-Fc): 8.6 nM
koff (hEphA2-FN12-(327-534)-Fc): 0.043 s⁻¹
kon (hEphA2-FN12-(327-534)-Fc): 5e+06 M⁻¹ s⁻¹
Kd (hEphA2-clv395-534-Fc): 12 nM
koff (hEphA2-clv395-534-Fc): 0.07 s⁻¹
kon (hEphA2-clv395-534-Fc): 5.72e+06 M⁻¹ s⁻¹

B3: AB-010699 (mIgG2a format) (antibody, V domains shown)
VH: B2 VH
VL: B1 VL with T29Y, Q60R, S92H, L97V
notes: Tested with mouse IgG2a constant regions (mIgG2a format)
Kd [3]: 18.9 nM
Kd [4]: 19 nM
koff [4]: 0.075 s⁻¹
kon [4]: 3.9e+06 M⁻¹ s⁻¹

B4: AB-009816 (antibody, mouse IgG2a, V domains shown)
VH: B2 VH with G31D, I51V, T76A, S86T, I107T
VL: B1 VL with T29S
IHC score [5]: 1
IHC score [6]: 2
IHC score [7]: 2
IHC score [8]: 1
IHC score [9]: 1
IHC score [10]: 2
IHC score [11]: 2
IHC score [12]: 2
IHC score [13]: 1
IHC score [14]: 2
IHC score [15]: 1
IHC score [16]: 1
IHC score [17]: 2
IHC score [18]: 2
IHC score [19]: 1
IHC score [20]: 1
IHC score [21]: 1
IHC score [22]: 2
IHC score [23]: 2
IHC score [24]: 2
IHC score [25]: 1

B5: AB-009817 (antibody, mouse IgG2a, V domains shown)
VH: B2 VH with G31D, I51V, T76P, S86T, I107T, G109A
VL: B1 VL with T29S
Delta (flow) [26]: 0
binding result [27]: no binding
